Experiments:
[1] = molecular target: T1, human (Homo sapiens) CD37 (human (Homo sapiens), UniProt P11049 1-281); experiment: flow cytometry on Daudi cells
T1 construct: Full-length protein on cells: endogenous on Daudi cells, Raji cells and B cells in human blood; also called Leukocyte Antigen CD37; GP52-40
T1 sequence: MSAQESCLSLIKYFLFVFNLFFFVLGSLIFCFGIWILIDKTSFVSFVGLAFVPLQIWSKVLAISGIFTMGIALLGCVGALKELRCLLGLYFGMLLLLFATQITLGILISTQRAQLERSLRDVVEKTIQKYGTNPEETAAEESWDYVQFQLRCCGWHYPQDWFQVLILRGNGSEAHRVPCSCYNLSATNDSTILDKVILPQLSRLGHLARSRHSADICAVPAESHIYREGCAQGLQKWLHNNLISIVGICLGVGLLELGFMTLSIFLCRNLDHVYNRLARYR
Description: (§1) Binding to cell surface expressed CD37 (Daudi cells, CHO cells expressing cynomolgus CD37) was determined by flow cytometry. Cells, resuspended in RPMI containing 0.2% BSA, were seeded at 100,000 cells/well in polystyrene 96 well round-bottom plates (Greiner bio-one Cat #650101) and centrifuged for 3 minutes at 300×g, 4° C. Serial dilutions (0.003-10 μg/mL final antibody concentration in 3.33× serial dilutions) of CD37 or control antibodies were added and cells were incubated for 30 minutes at 4° C. Plates were washed/centrifuged twice using FACS buffer (PBS/0.1% BSA/0.01% Na-Azide). Next, cells were incubated for 30 minutes at 4° C. with R-Phycoerythrin (PE)-conjugated goat-anti-human IgG F(ab′)2 (Jackson ImmunoResearch Laboratories, Inc., West Grove, Pa.; cat #: 109-116-098) diluted 1/100 in PBS/0.1% BSA/0.01% Na-Azide. Cells were washed/centrifuged twice using FACS buffer, resuspended in 30 μL FACS buffer and analyzed by determining mean fluorescent intensities using an Intellicyt iQue™ screener (Westburg). Binding curves were generated using non-linear regression (sigmoidal dose-response with variable slope) analyses within GraphPad Prism V6.04 software (GraphPad Software, Sand Diego, Calif., USA).

[2] = molecular target: T2, cynomolgus monkey (Macaca fascicularis) CD37 (cynomolgus monkey (Macaca fascicularis), UniProt P11049 1-281 (human entry)); experiment: flow cytometry on CHO cells expressing cynomolgus monkey CD37
T2 construct: also called mfCD37; Cynomolgus CD37
T2 chain: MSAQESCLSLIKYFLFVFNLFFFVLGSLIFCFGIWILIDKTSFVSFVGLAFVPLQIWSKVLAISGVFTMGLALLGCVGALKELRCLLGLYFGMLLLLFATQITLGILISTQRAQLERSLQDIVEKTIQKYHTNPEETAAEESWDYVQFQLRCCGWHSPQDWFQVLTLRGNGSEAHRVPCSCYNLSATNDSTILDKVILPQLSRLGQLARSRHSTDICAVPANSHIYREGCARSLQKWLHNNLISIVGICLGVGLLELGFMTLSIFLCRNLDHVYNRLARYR
Description: as §1
Binding to CHO cells expressing cynomolgus monkey CD37 was determined by flow cytometry using a method as described above.

[3] = molecular target: T1, human (Homo sapiens) CD37; experiment: flow cytometry, A488-labeled antibody on B cells in human whole blood; average of 6 donors
Description: (§2) Cells were pelleted and washed twice in 150 μL FACS buffer and resuspended in 150 μL TO-PRO-3 (end concentration 0.2 μM; Molecular Probes, cat no. T3605). Samples were measured by flow cytometry using an LSRFortessa flow cytometer. Binding is expressed as geometric mean of A488 fluorescence intensity for viable TO-PRO-3⁻/CD14⁻/CD19⁺ B-cells (human) or viable TO-PRO-3⁻/CD14⁻/CD19+/CD20+ B-cells (cynomolgus monkey). Log-transformed data were analyzed using best-fit values of a non-linear dose-response fit in GraphPad PRISM.

[4] = molecular target: T2, cynomolgus monkey (Macaca fascicularis) …; experiment: flow cytometry, A488-labeled antibody on B cells in cynomolgus monkey whole blood; average of 4 animals
Description: as §2

B1: IgG1-37.3 (antibody)
heavy: not shown
light: DIQMTQSPASLSVSVGETVTITCRASENIRSNLAWYQQKQGKSPQLLVNVATNLADGVPSRFSGSGSGTQYSLKINSLQSEDFGTYYCQHYWGTTWTFGGGTKLEIKRTVAAPSVFIFPPSDEQLKSGTASVVCLLNNFYPREAKVQWKVDNALQSGNSQESVTEQDSKDSTYSLSSTLTLSKADYEKHKVYACEVTHQGLSSPVTKSFNRGEC
notes: IgG1,kappa
binding result [1]: binds

B2: IgG1-37.3-E430G (antibody)
heavy: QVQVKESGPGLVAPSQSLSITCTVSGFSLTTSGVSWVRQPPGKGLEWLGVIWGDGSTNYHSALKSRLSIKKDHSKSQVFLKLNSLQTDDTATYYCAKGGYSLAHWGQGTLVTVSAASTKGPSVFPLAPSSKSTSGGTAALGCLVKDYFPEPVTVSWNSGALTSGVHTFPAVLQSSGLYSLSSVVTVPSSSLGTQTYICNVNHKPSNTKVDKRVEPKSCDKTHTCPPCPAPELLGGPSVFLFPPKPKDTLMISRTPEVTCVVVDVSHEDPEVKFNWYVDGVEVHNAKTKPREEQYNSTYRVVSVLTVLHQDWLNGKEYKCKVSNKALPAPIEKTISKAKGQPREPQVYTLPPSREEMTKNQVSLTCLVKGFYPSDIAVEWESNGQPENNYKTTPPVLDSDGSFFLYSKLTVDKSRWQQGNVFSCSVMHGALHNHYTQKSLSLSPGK
light: DIQMTQSPASLSVSVGETVTITCRASENIRSNLAWYQQKQGKSPQLLVNVATNLADGVPSRFSGSGSGTQYSLKINSLQSEDFGTYYCQHYWGTTWTFGGGTKLEIKRTVAAPSVFIFPPSDEQLKSGTASVVCLLNNFYPREAKVQWKVDNALQSGNSQESVTEQDSKDSTYSLSSTLTLSKADYEKHKVYACEVTHQGLSSPVTKSFNRGEC
notes: IgG1,kappa with E430G (EU numbering)
binding result [1]: binds

B3: IgG1-016-H5L2-E430G (antibody)
heavy: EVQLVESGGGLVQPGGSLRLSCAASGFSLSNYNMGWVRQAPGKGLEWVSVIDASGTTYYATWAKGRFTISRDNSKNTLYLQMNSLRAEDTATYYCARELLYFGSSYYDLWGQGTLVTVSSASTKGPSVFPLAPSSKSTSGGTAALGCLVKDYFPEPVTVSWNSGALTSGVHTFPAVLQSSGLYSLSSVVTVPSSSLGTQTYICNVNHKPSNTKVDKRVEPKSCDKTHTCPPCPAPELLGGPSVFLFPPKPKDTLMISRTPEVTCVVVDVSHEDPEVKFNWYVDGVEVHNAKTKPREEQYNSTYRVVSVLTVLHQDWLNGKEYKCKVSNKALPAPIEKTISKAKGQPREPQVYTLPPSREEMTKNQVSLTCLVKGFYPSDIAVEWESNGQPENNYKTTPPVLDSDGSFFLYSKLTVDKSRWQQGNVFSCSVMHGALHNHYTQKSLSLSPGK
light: DVVMTQSPSTLSASVGDRVTITCQASQNIDSNLAWYQQKPGKAPKFLIYYASNLPFGVPSRFKGSGSGTEFTLTISSLQPDDFATYYCQCADVGSTYVAAFGGGTKVEIKRTVAAPSVFIFPPSDEQLKSGTASVVCLLNNFYPREAKVQWKVDNALQSGNSQESVTEQDSKDSTYSLSSTLTLSKADYEKHKVYACEVTHQGLSSPVTKSFNRGEC
notes: as for B2
binding result [1]: binds
binding result [2]: binds

B4: bsIgG1-016-H5L2-LC90S-F405L-E430Gx010-H5L2-K409R-E430G (bispecific antibody)
heavy 1: not shown
light 1: DVVMTQSPSTLSASVGDRVTITCQASQNIDSNLAWYQQKPGKAPKFLIYYASNLPFGVPSRFKGSGSGTEFTLTISSLQPDDFATYYCQSADVGSTYVAAFGGGTKVEIKRTVAAPSVFIFPPSDEQLKSGTASVVCLLNNFYPREAKVQWKVDNALQSGNSQESVTEQDSKDSTYSLSSTLTLSKADYEKHKVYACEVTHQGLSSPVTKSFNRGEC
heavy 2: not shown
light 2: AYDMTQSPSTLSASVGDRVTITCQASQNIIDYLAWYQQKPGKAPKLLIHKASTLASGVPSRFKGSGSGTEFTLTISSLQPDDFATYYCQQGYSNSNIDNTFGGGTKVEIKRTVAAPSVFIFPPSDEQLKSGTASVVCLLNNFYPREAKVQWKVDNALQSGNSQESVTEQDSKDSTYSLSSTLTLSKADYEKHKVYACEVTHQGLSSPVTKSFNRGEC
EC50 [3]: 0.85 mg/L
EC50 [4]: 0.63 mg/L

B5: IgG1-016-H5L2-F405L-E430G (antibody)
heavy: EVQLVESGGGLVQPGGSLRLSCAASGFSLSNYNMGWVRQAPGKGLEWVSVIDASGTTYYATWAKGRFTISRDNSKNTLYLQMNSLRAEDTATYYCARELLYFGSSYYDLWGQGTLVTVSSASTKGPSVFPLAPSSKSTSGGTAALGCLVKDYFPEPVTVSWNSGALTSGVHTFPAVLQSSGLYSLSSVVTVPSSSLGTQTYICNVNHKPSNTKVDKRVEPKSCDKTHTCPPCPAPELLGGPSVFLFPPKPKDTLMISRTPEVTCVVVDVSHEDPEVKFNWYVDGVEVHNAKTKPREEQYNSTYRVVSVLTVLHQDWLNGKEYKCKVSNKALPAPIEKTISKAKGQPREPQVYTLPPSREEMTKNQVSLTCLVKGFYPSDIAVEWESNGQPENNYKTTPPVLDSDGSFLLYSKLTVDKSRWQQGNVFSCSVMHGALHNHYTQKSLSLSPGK
light: DVVMTQSPSTLSASVGDRVTITCQASQNIDSNLAWYQQKPGKAPKFLIYYASNLPFGVPSRFKGSGSGTEFTLTISSLQPDDFATYYCQCADVGSTYVAAFGGGTKVEIKRTVAAPSVFIFPPSDEQLKSGTASVVCLLNNFYPREAKVQWKVDNALQSGNSQESVTEQDSKDSTYSLSSTLTLSKADYEKHKVYACEVTHQGLSSPVTKSFNRGEC
notes: IgG1,kappa with F405L and E430G (EU numbering)
binding result [1]: binds

B6: IgG1-016-H5L2-LC90S-F405L-E430G (antibody, V domains shown)
VH: EVQLVESGGGLVQPGGSLRLSCAASGFSLSNYNMGWVRQAPGKGLEWVSVIDASGTTYYATWAKGRFTISRDNSKNTLYLQMNSLRAEDTATYYCARELLYFGSSYYDLWGQGTLVTVSS
VL: DVVMTQSPSTLSASVGDRVTITCQASQNIDSNLAWYQQKPGKAPKFLIYYASNLPFGVPSRFKGSGSGTEFTLTISSLQPDDFATYYCQSADVGSTYVAAFGGGTKVEIKR
notes: IgG1,kappa; light chain C90S, heavy chain F405L and E430G (EU numbering)
binding result [1]: binds

B7: IgG1-016-H5L2 (antibody)
heavy: not shown
light: DVVMTQSPSTLSASVGDRVTITCQASQNIDSNLAWYQQKPGKAPKFLIYYASNLPFGVPSRFKGSGSGTEFTLTISSLQPDDFATYYCQCADVGSTYVAAFGGGTKVEIKRTVAAPSVFIFPPSDEQLKSGTASVVCLLNNFYPREAKVQWKVDNALQSGNSQESVTEQDSKDSTYSLSSTLTLSKADYEKHKVYACEVTHQGLSSPVTKSFNRGEC
notes: Humanized, IgG1,kappa
binding result [1]: binds

B8: IgG1-004-H5L2 (antibody)
heavy: not shown
light: AQVLTQSPSPLSASVGDRVTITCQASQSVYNSQNLAWYQQKPGKAPKLLIYEASKLASGVPSRFKGSGSGTEFTLTISSLQPDDFATYYCQGEFSCISADCTAFGGGTKVEIKRTVAAPSVFIFPPSDEQLKSGTASVVCLLNNFYPREAKVQWKVDNALQSGNSQESVTEQDSKDSTYSLSSTLTLSKADYEKHKVYACEVTHQGLSSPVTKSFNRGEC
binding result [1]: binds

B9: IgG1-004-H5L2-E430G (antibody)
heavy: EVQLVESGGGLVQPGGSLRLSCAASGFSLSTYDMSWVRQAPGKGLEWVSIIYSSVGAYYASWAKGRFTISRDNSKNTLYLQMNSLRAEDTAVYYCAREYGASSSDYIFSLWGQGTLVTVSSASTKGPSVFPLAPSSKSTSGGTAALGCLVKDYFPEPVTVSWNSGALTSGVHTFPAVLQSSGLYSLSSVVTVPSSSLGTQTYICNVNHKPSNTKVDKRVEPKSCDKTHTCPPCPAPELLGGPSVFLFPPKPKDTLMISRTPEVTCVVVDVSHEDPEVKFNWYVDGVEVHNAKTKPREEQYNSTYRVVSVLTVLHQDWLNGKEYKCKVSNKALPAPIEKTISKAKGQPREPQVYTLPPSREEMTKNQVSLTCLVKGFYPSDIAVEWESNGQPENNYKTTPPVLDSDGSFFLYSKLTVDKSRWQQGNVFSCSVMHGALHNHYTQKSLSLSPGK
light: AQVLTQSPSPLSASVGDRVTITCQASQSVYNSQNLAWYQQKPGKAPKLLIYEASKLASGVPSRFKGSGSGTEFTLTISSLQPDDFATYYCQGEFSCISADCTAFGGGTKVEIKRTVAAPSVFIFPPSDEQLKSGTASVVCLLNNFYPREAKVQWKVDNALQSGNSQESVTEQDSKDSTYSLSSTLTLSKADYEKHKVYACEVTHQGLSSPVTKSFNRGEC
notes: as for B2
binding result [1]: binds
binding result [2]: binds

B10: IgG1-005-H1L2-E430G (antibody)
heavy: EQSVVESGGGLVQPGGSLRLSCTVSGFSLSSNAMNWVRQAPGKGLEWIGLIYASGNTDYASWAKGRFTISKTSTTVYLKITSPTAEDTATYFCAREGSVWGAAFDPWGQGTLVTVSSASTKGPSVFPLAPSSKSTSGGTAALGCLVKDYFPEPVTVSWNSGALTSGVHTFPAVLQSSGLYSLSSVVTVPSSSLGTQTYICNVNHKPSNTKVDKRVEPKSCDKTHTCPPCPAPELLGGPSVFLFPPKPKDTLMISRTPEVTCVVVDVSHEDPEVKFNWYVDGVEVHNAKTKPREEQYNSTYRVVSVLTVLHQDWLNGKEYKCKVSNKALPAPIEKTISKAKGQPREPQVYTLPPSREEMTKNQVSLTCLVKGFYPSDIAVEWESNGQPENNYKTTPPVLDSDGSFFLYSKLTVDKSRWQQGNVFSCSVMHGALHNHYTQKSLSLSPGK
light: AYDMTQSPSSVSASVGDRVTITCQASQSISNWLAWYQQKPGKAPKQLIYAASTLASGVPSRFKGSGSGTDFTLTISSLQPEDFATYYCQQGYSNSNIDNTFGGGTKVEIKRTVAAPSVFIFPPSDEQLKSGTASVVCLLNNFYPREAKVQWKVDNALQSGNSQESVTEQDSKDSTYSLSSTLTLSKADYEKHKVYACEVTHQGLSSPVTKSFNRGEC
notes: as for B2
binding result [1]: binds
binding result [2]: binds

B11: IgG1-005-H1L2 (antibody)
heavy: not shown
light: AYDMTQSPSSVSASVGDRVTITCQASQSISNWLAWYQQKPGKAPKQLIYAASTLASGVPSRFKGSGSGTDFTLTISSLQPEDFATYYCQQGYSNSNIDNTFGGGTKVEIKRTVAAPSVFIFPPSDEQLKSGTASVVCLLNNFYPREAKVQWKVDNALQSGNSQESVTEQDSKDSTYSLSSTLTLSKADYEKHKVYACEVTHQGLSSPVTKSFNRGEC
notes: Humanized, IgG1,kappa
binding result [1]: binds

B12: IgG1-010-H5L2 (antibody)
heavy: not shown
light: AYDMTQSPSTLSASVGDRVTITCQASQNIIDYLAWYQQKPGKAPKLLIHKASTLASGVPSRFKGSGSGTEFTLTISSLQPDDFATYYCQQGYSNSNIDNTFGGGTKVEIKRTVAAPSVFIFPPSDEQLKSGTASVVCLLNNFYPREAKVQWKVDNALQSGNSQESVTEQDSKDSTYSLSSTLTLSKADYEKHKVYACEVTHQGLSSPVTKSFNRGEC
notes: Humanized, IgG1,kappa
binding result [1]: binds

B13: IgG1-010-H5L2-E430G (antibody)
heavy: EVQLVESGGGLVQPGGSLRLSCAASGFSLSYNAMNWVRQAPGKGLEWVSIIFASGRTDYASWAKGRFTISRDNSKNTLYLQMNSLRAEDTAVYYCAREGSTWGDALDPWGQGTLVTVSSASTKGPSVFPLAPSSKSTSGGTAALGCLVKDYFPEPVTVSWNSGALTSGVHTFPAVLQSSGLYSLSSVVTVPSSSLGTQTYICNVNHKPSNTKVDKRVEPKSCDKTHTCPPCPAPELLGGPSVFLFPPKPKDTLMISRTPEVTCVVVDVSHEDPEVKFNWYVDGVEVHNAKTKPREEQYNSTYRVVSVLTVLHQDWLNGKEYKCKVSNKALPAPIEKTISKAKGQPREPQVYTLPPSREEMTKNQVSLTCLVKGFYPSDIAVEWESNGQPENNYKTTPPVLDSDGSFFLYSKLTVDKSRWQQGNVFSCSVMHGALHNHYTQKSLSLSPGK
light: AYDMTQSPSTLSASVGDRVTITCQASQNIIDYLAWYQQKPGKAPKLLIHKASTLASGVPSRFKGSGSGTEFTLTISSLQPDDFATYYCQQGYSNSNIDNTFGGGTKVEIKRTVAAPSVFIFPPSDEQLKSGTASVVCLLNNFYPREAKVQWKVDNALQSGNSQESVTEQDSKDSTYSLSSTLTLSKADYEKHKVYACEVTHQGLSSPVTKSFNRGEC
notes: as for B2
binding result [1]: binds
binding result [2]: binds

B14: IgG1-G28.1 (antibody)
heavy: not shown
light: DIQMTQSPASLSASVGETVTITCRTSENVYSYLAWYQQKQGKSPQLLVSFAKTLAEGVPSRFSGSGSGTQFSLKISSLQPEDSGSYFCQHHSDNPWTFGGGTELEIKRTVAAPSVFIFPPSDEQLKSGTASVVCLLNNFYPREAKVQWKVDNALQSGNSQESVTEQDSKDSTYSLSSTLTLSKADYEKHKVYACEVTHQGLSSPVTKSFNRGEC
notes: IgG1,kappa
binding result [1]: binds
binding result [2]: no binding (tested: 0.003-10 µg/mL)

B15: IgG1-G28.1-E430G (antibody)
heavy: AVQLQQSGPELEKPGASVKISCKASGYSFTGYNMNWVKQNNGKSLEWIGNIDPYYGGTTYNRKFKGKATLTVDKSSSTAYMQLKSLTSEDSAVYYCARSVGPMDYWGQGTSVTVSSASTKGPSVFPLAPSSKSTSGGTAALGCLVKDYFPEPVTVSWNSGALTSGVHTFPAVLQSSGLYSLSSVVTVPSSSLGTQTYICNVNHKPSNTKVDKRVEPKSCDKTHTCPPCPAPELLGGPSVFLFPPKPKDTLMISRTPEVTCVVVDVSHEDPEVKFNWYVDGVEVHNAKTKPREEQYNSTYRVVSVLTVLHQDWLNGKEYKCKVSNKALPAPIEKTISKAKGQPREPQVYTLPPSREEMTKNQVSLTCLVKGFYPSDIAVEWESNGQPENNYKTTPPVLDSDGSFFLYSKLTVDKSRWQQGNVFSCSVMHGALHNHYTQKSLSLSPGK
light: DIQMTQSPASLSASVGETVTITCRTSENVYSYLAWYQQKQGKSPQLLVSFAKTLAEGVPSRFSGSGSGTQFSLKISSLQPEDSGSYFCQHHSDNPWTFGGGTELEIKRTVAAPSVFIFPPSDEQLKSGTASVVCLLNNFYPREAKVQWKVDNALQSGNSQESVTEQDSKDSTYSLSSTLTLSKADYEKHKVYACEVTHQGLSSPVTKSFNRGEC
notes: as for B2
binding result [1]: binds
binding result [2]: no binding (tested: 0.003-10 µg/mL)

— US20200270359A1 (Genmab, published 2020)
